Biological target: sumf1_human SUMF1 (UniProt Q8NBK3)
Sequence (Q8NBK3 whole entry): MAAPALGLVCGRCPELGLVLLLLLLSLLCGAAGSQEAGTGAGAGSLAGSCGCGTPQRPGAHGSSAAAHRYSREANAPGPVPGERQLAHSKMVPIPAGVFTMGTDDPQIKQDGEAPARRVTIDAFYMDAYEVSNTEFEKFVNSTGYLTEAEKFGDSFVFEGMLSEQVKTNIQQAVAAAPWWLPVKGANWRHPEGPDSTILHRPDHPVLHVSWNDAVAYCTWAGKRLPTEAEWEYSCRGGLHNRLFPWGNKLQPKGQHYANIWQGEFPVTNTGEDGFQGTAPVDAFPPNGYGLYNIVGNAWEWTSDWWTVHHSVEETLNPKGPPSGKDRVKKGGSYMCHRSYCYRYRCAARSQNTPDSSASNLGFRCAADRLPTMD

Inactive C-alpha-formylglycine-generating enzyme 2 (Homo sapiens), Q8NBJ7 C156A;C290A
effect of a mutation on the interaction: disrupting interaction strength

— IntAct's records for PubMed 15962010
